Where a chain is given by its changes, count along the chain named.
B1: 122 (protein, listed as Mus musculus)
chain: MAPAGCGCGCSGSLGAAVVRPLLLLLGALACVRATEHYSPLSLLKQELQHRQQQEAPAGGGCPQSGDWADQYPECESSFLNFHESDCELRGSAPCDSLLSLNTEKILSQAKSIAEQKRFPFATDNDSTNEELAIAYVLVGSGLYDEAIRHFSTMLQEAIEAFKEALKQKVDFIDAYKSLGQAYRELGNFDAATESFQKALLLNQNHVQTQQLRGMMLYHHGSLQEALKNFKRCLQLEPYNELCQYMKGLSHVAMGQFYEGIKAQTKVMLNDPLPGQKASPEYLRVKYLREYSRYLHAHLDTPLTEYNIDSDLPGSFKDHWAKNLPFLIDGYEEQPGLQPHIRDVLHQNFEGYKPEVQELICVADRLGSLMQYETPGFLPNKRIHRAMGLAALEVMQAVHRTWTNSKVRMNGKTRLLQWRDMFDIAVKWRRIADPDQPVLWLDQMPAPSLSRGFNNHINLIRGQVINMRYLEYFEKILHFIKDRILVYHGANNPKGLLEVREALEKVHKVEDLLPIMKQFNTKTKDGFTVNTKVPSLKDQGKEYDGFTITITGDKVGNILFSVETQTTEERTQLYHAEIDALYKDLTAKGKVLTLSAEFGEADAVCNLILSLVYYFYNLMPLSRGSSVIAYSVIVGALMASGKEVAGKIPKGKLVDFEAMTAPGSEAFSKIAKSWMNLKSISPSYKTLPSVSETFPTLRSMIEVLNTDSTPRCLKKL
B2: 132 (protein, listed as Mus musculus)
chain: MAGRTMQAARCPTDELSLSNCAVVNEKDFQSGQHVMVRTSPNHKHIFTLRTHPSVVPGCIAFSLPQRKWAGLSIGQDIEVALYSFDKAKQCIGTMTIEIDFLQKKNIDSNPYDTDKMAAEFIQQFNNQAFSVGQQLVFSFNDKLFGLLVKDIEAMDPSILKGEPASGKRQKIEVGLVVGNSQVAFEKAENSSLNLIGKAKTKENRQSIINPDWNFEKMGIGGLDKGFSDIFRRAFASRVFPPEIVEQMGCKHVRGILLYGPPGCGKTLLARQIGKMLNAREPKVVNGPEILNKYVGESEANIRKLFADAEEEQRRLGANSGLHIIIFDEIDAICKQRGSMAGSTGVHDTVVNQLLSKIDGVEQLNNILVIGMTNRPDLIDEALLRPGRLEVKMEIGLPDEKGRLQILHIHTARMRGHQLLSADVDIKELAVETKNFSGAELEGLVRAAQSTAMNRHIKASTKVEVDMEKAESLQVTRGDFLASLENDIKPAFGTNQEDYASYIMNGIIKWGDPVTRVLDDGELLVQQTKNSDRTPLVSVLLEGPPHSGKTALAAKIAEESNFPFIKICSPDKMIGFSETAKCQAMKKIFDDAYKSQLSCVVVDDIERLLDYVPIGPRFSNLVLQALLVLLKKAPPQGRKLLIIGTTSRKDVLQEMEMLNAFSTTIHVPNIATGEQLLEALELLGNFKDKERTTIAQQVKGKKVWIGIKKLLMLIEMSLQMDPEYRVRKFLALMREEGASPLDFD
B3: 150 (protein, listed as Homo sapiens)
chain: MSSGKSARYNRFSGGPSNLPTPDVTTGTRMETTFGPAFSAVTTITKADGTSTYKQHCRTPSSSSTLAYSPRDEEDSMPPISTPRRSDSAISVRSLHSESSMSLRSTFSLPEEEEEPEPLVFAEQPSVKLCCQLCCSVFKDPVITTCGHTFCRRCALKSEKCPVDNVKLTVVVNNIAVAEQIGELFIHCRHGCRVAGSGKPPIFEVDPRGCPFTIKLSARKDHEGSCDYRPVRCPNNPSCPPLLRMNLEAHLKECEHIKCPHSKYGCTFIGNQDTYETHLETCRFEGLKEFLQQTDDRFHEMHVALAQKDQEIAFLRSMLGKLSEKIDQLEKSLELKFDVLDENQSKLSEDLMEFRRDASMLNDELSHINARLNMGILGSYDPQQIFKCKGTFVGHQGPVWCLCVYSMGDLLFSGSSDKTIKVWDTCTTYKCQKTLEGHDGIVLALCIQGCKLYSGSADCTIIVWDIQNLQKVNTIRAHDNPVCTLVSSHNVLFSGSLKAIKVWDIVGTELKLKKELTGLNHWVRALVAAQSYLYSGSYQTIKIWDIRTLDCIHVLQTSGGSVYSIAVTNHHIVCGTYENLIHVWDIESKEQVRTLTGHVGTVYALAVISTPDQTKVFSASYDRSLRVWSMDNMICTQTLLRHQGSVTALAVSRGRLFSGAVDSTVKVWTC
B4: 146 (protein, listed as Homo sapiens)
chain: MNHIVQTFSPVNSGQPPNYEMLKEEQEVAMLGAPHNPAPPTSTVIHIRSETSVPDHVVWSLFNTLFMNTCCLGFIAFAYSVKSRDRKMVGDVTGAQAYASTAKCLNIWALILGIFMTILLVIIPVLVVQAQR
B5: 148 (protein, listed as Homo sapiens)
chain: B4 chain with V121I
B6: 6 (protein, listed as Homo sapiens)
chain: MEGPGLGSQCRNHSHGPHPPGFGRYGICAHENKELANAREALPLIEDSSNCDIVKATQYGIFERCKELVEAGYDVRQPDKENVSLLHWAAINNRLDLVKFYISKGAVVDQLGGDLNSTPLHWAIRQGHLPMVILLLQHGADPTLIDGEGFSSIHLAVLFQHMPIIAYLISKGQSVNMTDVNGQTPLMLSAHKVIGPEPTGFLLKFNPSLNVVDKIHQNTPLHWAVAAGNVNAVDKLLEAGSSLDIQNVKGETPLDMALQNKNQLIIHMLKTEAKMRANQKFRLWRWLQKCELFLLLMLSVITMWAIGYILDFNSDSWLLKGCLLVTLFFLTSLFPRFLVGYKNLVYLPTAFLLSSVFWIFMTWFILFFPDLAGAPFYFSFIFSIVAFLYFFYKTWATDPGFTKASEEEKKVNIITLAETGSLDFRTFCTSCLIRKPLRSLHCHVCNCCVARYDQHCLWTGRCIGFGNHHYYIFFLFFLSMVCGWIIYGSFIYLSSHCATTFKEDGLWTYLNQIVACSPWVLYILMLATFHFSWSTFLLLNQLFQIAFLGLTSHERISLQKQSKHMKQTLSLRKTPYNLGFMQNLADFFQCGCFGLVKPCVVDWTSQYTMVFHPAREKVLRSV
B7: 152 (protein, listed as Homo sapiens)
chain: MAPAGCCCCCCFWGGAVAAAGAARRVLLLLLLGVLSAGLRPGALATEHYSPLSLLKQELQHRQQQEAPAGGGGCSPQSGDWGDQYSAECGESSFLNFHDSDCEPKGSSPCDSLLSLNTEKILSQAKSIAEQKRFPFATDNDSTNEELAIAYVLIGSGLYDEAIRHFSTMLQEEPDLVSAIYGRGIAYGKKGLHDIKNAELALFELSRVITLEPDRPEVFEQRAEILSPLGRINEAVNDLTKAIQLQPSARLYRHRGTLYFISEDYATAHEDFQQSLELNKNQPIAMLYKGLTFFHRGLLKEAIESFKEALKQKVDFIDAYKSLGQAYRELGNFEAATESFQKALLLNQNHVQTLQLRGMMLYHHGSLQEALKNFKRCLQLEPYNEVCQYMKGLSHVAMGQFYEGIKAQTKVMLNDPLPGQKASPEYLKVKYLREYSRHLHAHLDTPLTEYNIDVDLPGSFKDHWAKNLPFLIEDYEEQPGLQPHIKDVLHQNFESYKPEVQELICVADRLGSLMQYETPGFLPNKRIHRAMGLAALEVMQAVQRTWTNSKVRMNGKTRLMQWRDMFDIAVKWRRIADPDQPVLWLDQMPARSLSRGFNNHINLIRGQVINMRYLEYFEKILHFIKDRILVYHGANNPKGLLEVREALEKVHKVEDLLPIMKQFNTKTKDGFTVNTKVPSLKDQGKEYDGFTITITGDKVGNILFSVETQTTEERTQLYHAEIDALYKDLTAKGKVLILSSEFGEADAVCNLILSLVYYFYNLMPLSRGSSVIAYSVIVGALMASGKEVAGKIPKGKLVDFEAMTAPGSEAFSKVAKSWMNLKSISPSYKTLPSVSETFPTLRSMIEVLNTDSSPRCLKKL
B8: 154 (protein, listed as Homo sapiens)
chain: MAPAGCCCCCCFWGGAVAAAGAARRVLLLLLLGVLSARLRPGALATEHYSPLSLLKQELQHRQQQEAPAGGGGCSPQSGDWGDQYSAECGESSFLNFHDSDCEPKGSSPCDSLLSLNTEKILSQAKSIAEQKRFPFATDNDSTNEELAIAYVLIGSGLYDEAIRHFSTMLQILSPLGRINEAVNDLTKAIQLQPSARLYRHRGTLYFISEDYATAHEDFQQSLELNKNQPIAMLYKGLTFFHRGLLKEAIESFKEALKQKVDFIDAYKSLGQAYRELGNFEAATESFQKALLLNQNHVQTLQLRGMMLYHHGSLQEALKNFKRCLQLEPYNEVCQYMKGLSHVAMGQFYEGIKAQTKVMLNDPLPGQKASPEYLKVKYLREYSRYLHAHLDTPLTEYNIDVDLPGSFKDHWAKNLPFLIEDYEEQPGLQPHIKDVLHQNFESYKPEVQELICVADRLGSLMQYETPGFLPNKRIHRAMGLAALEVMQAVQRTWTNSKVRMNGKTRLMQWRDMFDIAVKWRRIADPDQPVLWLDQMPARSLSRGFNNHINLIRGQVINMRYLEYFEKILHFIKDRILVYHGANNPKGLLEVREALEKVHKVEDLLPIMKFNTKTKDGFTVNTKVPSLKDQGKEYDGFTITITGDKVGNILFSVETQTTEERTQLYHAEIDALYKDLTAKGKVLILSSEFGEADAVCNLILSLVYYFYNLMPLSRGSSVIAYSVIVGALMASGKEVAGKIPKGKLVDFEAMTAPGSEAFSKVAKSWMNLKSISPSYKTLPSVSETFPTLRSMIEVLNTDSSPRCLKKL

Test system: MAP kinase cascade activation
Test: Reporter activity reflecting MAP kinase cascade activation, corrected using an internal control (Elk1-GAL4 luciferase reporter in 293-EBNA cells)
Format: cell-based, human
Settings: 12.5 ng/well expression plasmid; 293-EBNA cells; 24 hours
Description: (in the presence of 5% CO2). […] The method used for introduction was in accordance with the attached protocol. After culturing for 24 hours at 37° C., reporter activity (firefly luciferase acitivity), which reflects MAP kinase cascade activation, and reporter activity being the internal control (sea pansy luciferase) were measured using Picagene Dual (purchased from Toyo Ink Manufacturing) in accordance with the manufacturer's instructions.
Luciferase activity was measured with Perkin Elmer's Wallac ARVOTMST 1420 MULTILABEL COUNTER.
Reporter activity where an expression plasmid comprising the above gene was introduced, which reflects MAP kinase cascade activation corrected with internal control reporter activity, is shown in Table 1, which is expressed as a factor of the same reporter activity where a null vector was introduced (S/B value).

Molecule | Reporter activity corrected with internal control, as a factor of null vector (S/B value)
B1 | 1.8
B2 | 5.6
B3 | 6.7

Same assay, conditions: 25 ng/well expression plasmid; 293-EBNA cells; 24 hours

Molecule | Reporter activity corrected with internal control, as a factor of null vector (S/B value)
B1 | 2.9
B2 | 10.1
B4 | 3.5
B5 | 1.6
B3 | 2.8
B6 | 2.1

Same assay, conditions: 50 ng/well expression plasmid; 293-EBNA cells; 24 hours

Molecule | Reporter activity corrected with internal control, as a factor of null vector (S/B value)
B1 | 6.8
B2 | 16.6
B4 | 5.6
B5 | 3.4
B3 | 1.7
B6 | 2.4

Same assay, conditions: 100 ng/well expression plasmid; 293-EBNA cells; 24 hours

Molecule | Reporter activity corrected with internal control, as a factor of null vector (S/B value)
B4 | 8.8
B5 | 5.0
B6 | 2.9

Same assay, conditions: plasmid 12.5 ng, 25 ng, 50 ng and 100 ng

Molecule | Dependence of corrected reporter activity on amount of expression plasmid
B1 | increases that were dependent on the amount of expression plasmid
B2 | increases that were dependent on the amount of expression plasmid
B4 | increases that were dependent on the amount of expression plasmid
B5 | increases that were dependent on the amount of expression plasmid
B3 | increases that were dependent on the amount of expression plasmid
B7 | increases that were dependent on the amount of expression plasmid
B8 | increases that were dependent on the amount of expression plasmid
B6 | increases that were dependent on the amount of expression plasmid
